Test results: patent US20220401560A1, “PEPTIDE ENCAPSULATING FERRITIN” (Ajinomoto Co., Inc., priority 2019, published 2022)
No end group written: not given here.

Legend:
ferritin (FTH) [1] = biological target: T1, ferritin (FTH) (Homo sapiens, UniProt P02794); test: Search for peptides capable of being encapsulated into ferritin by disassembly/reassembly process, LC-MS detection; settings: encapsulation into ferritin (FTH); three trials
T1 construct: made in house; host or cells: Escherichia coli BL21 (DE3), plasmid pET20-FTH
T1 sequence (P02794 whole entry): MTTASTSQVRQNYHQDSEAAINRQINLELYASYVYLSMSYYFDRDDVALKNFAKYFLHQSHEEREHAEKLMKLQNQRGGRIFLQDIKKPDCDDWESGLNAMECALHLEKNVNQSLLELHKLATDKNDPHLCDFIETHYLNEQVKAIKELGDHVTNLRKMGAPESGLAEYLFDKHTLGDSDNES
Description: Peptides capable of being encapsulated into ferritin by disassembly/reassembly process were searched. In the disassembly/reassembly process, 1 mL of a 50 mM glycine hydrochloride buffer (pH 2.3) containing FTH at a final concentration of 5 mg/mL and the peptide at a final concentration of 0.5 mM, was left to stand at room temperature for 15 minutes. Next, 310 μL of a 1 M Tris hydrochloride buffer (pH 9.0) was added for neutralization, and left to stand at room temperature for 3 hours. After the standing, 1.2 mL of a 50 mM Tris hydrochloride buffer (pH 8.0) was added, and centrifuged (at 15,000 rpm for one minute). Thereafter, 2.5 mL of its supernatant was injected into a desalting column PD-10 (Sephadex G-25 filled product, GE Healthcare Inc.) equilibrated with a 50 mM Tris hydrochloride buffer (pH 8) for the elusion with 3.0 mL of a 50 mM Tris hydrochloride buffer (pH 8.0) to separate non-encapsulated peptides and ferritin. A whole amount (3.0 mL) of the resulting solution was concentrated to 0.1 mL by centrifugal ultrafiltration using Vivaspin 20-100K (GE Healthcare Inc.). The operation of adding 10 mL of a 50 mM Tris hydrochloride buffer to the concentrated solution and then concentrating was repeated twice to remove peptides that were not removed by PD-10 to obtain 0.1 mL of a sample solution. For the LC-MS analysis, 50 p1 of a 1 M glycine hydrochloride buffer (pH 2.3) was added to 50 μL of the sample solution and then the resulting solution was left to stand at room temperature for 15 minutes. To the solution, 900 μL of ethanol was added. Next, the resulting solution was stirred vigorously and then centrifuged (at 15,000 rpm for five minutes) for collection of the supernatant. The supernatant was analyzed using LCMS-2020 (Shimadzu Corporation) as LC-MS, Inertsil (Registered trademark) as a column, ODS-3, particle diameter of 2 μm and 2.1 mm×50 mm (GL science). Thereafter, 10 μL of the sample injected into the column was eluded at a flow rate of 0.2 mL/min for 10 minutes such that a mixing ratio of a solution A (0.1% formic acid/99.9% acetonitrile) and a solution B (50% water/50% acetonitrile) is from 95:5 to 95:5.
The encapsulation of the peptide into ferritin was studied by comparing in terms of the amount of the peptide detected by LC/MS between the sample prepared by encapsulating the peptide into ferritin at the disassembly/reassembly process and the sample prepared simply by mixing ferritin with the peptide. For example, ClAc-FHC was eluted at a retention time of 0.8 minute. […] However, the peak was not observed for the sample prepared by simply mixing the peptide with ferritin without performing the disassembly/reassembly process (FIG. 12B). FIG. 13 to FIG. 17 illustrate LC-MS results for FTH in which the peptide was encapsulated at the disassembly/reassembly process.

SKBR-3 cell = test: Cell incorporation observed with two-photon excitation fluorescence microscope; assay type: cell-based, human; settings: 24 hours, same conditions as FACS test
ferritin (FTH) [2] = biological target: T1, ferritin (FTH); test: Encapsulation of fluorescent dye-modified peptide into FTH, column chromatography with absorbance at 480 nm and LC-MS
Description: Of a 50 mM glycine hydrochloride buffer (pH 2.3) that contains FTH (chemical formula weight: 509,421) at a final concentration of 5 mg/mL and the peptide at a final concentration of 0.5 mM, 0.5 mL was left to stand at room temperature for 15 minutes. Next, 50 μL of a 1 M Tris hydrochloride buffer (pH 9.0) was added for neutralization, and the resulting solution was left to stand at room temperature for 3 hours. After the standing, the resulting solution was centrifuged (at 15,000 rpm for one minute). Then, the supernatant was collected and the volume was increased up to 3 mL with a 10 mM Tris hydrochloride buffer (pH 8). The resulting solution was injected into the HiPrep 26/60 Sephacryl S-300 HR column (GE Healthcare Inc.) equilibrated with a 10 mM Tris-HCl buffer (pH 8.0) to separate and purify 24-mer FTH by size at a flow rate of 1.3 mL/minute. The purified ferritin was analyzed using a HiPrep 16/60 Sephacryl S-300 HR column (GE Healthcare Inc.) equilibrated with a 10 mM Tris-HCl buffer (pH 8.0) at a flow rate of 0.5 mL/minute and confirmed as the absorbance at 480 nm unobservable from FTH only, at the same position as that of a peak of FTH.
The solution containing the FTH was concentrated to 0.25 mL by centrifugal ultrafiltration using Vivaspin 20-100K (GE Healthcare Inc.). […] For the LC-MS analysis, 50 μL of a 1 M glycine hydrochloride buffer (pH 2.3) was added to 50 μL of the sample solution and then the resulting solution was left to stand at room temperature for 15 minutes. To the solution 900 μL of ethanol was added. Next, the resulting solution was stirred vigorously and then centrifuged (at 15,000 rpm for five minutes) to collect its supernatant. The supernatant was analyzed using LCMS-2020 (Shimadzu Corporation) as LC-MS, inertsil (Registered trademark) ODS-3 with a particle diameter of 2 μm and 2.1 mm×50 mm (GL science) as a column. Into the column, 10 μL of the sample was injected, and eluded at a flow rate of 0.2 mL/min for 10 minutes such that a mixing ratio of a solution A (0.1% formic acid/99.9% acetonitrile) and a solution B (50% water/50% acetonitrile) was from 95:5 to 95:5. The concentration of the contained protein was determined using a protein assay CBB solution (Nacalai Tesque, Inc.) in terms of bovine albumin as a standard. The concentration of the encapsulated peptide was determined based on the absorbance at 480 nm of the fluorescent dye FAM to which PKC-F is modified.
First, the construction of FTH encapsulating two kinds of fluorescent dye-modified peptides [5(6)—FAM-[…] (SEQ ID NO: 10), FAM-SV40, chemical formula weight 1,516, and 5(6)—FAM-[…] […] (SEQ ID NO: 11), FAN-Np, chemical formula weight 384] was attempted. 0.5 mL of a 50 mM glycine hydrochloride buffer (pH 2.3) that contains FTH (chemical formula weight 509,421) at a final concentration of 5 mg/mL and a peptide at a final concentration of 0.5 mM, was left to stand at room temperature for 15 minutes. Next, 50 μL of a 1 M Tris hydrochloride buffer (pH 9.0) was added for neutralization, and the resulting solution was left to stand at room temperature for 3 hours. […] The absorbance at […] was confirmed at the same elusion position as that of ferritin 24-mer, for ferritin that was used for the operation to encapsulate FAM-SV40 therein. […] Next, the peptide amount of FAM-SV40 encapsulated in purified ferritin was quantified based on the 480 nm absorbance and by CBB staining with use of ferritin-amount-albumin as a standard.

ferritin (FTL) = biological target: T2, ferritin (FTL) (Homo sapiens, UniProt P02792); test: Encapsulation of fluorescent dye-modified peptide into FTL, column chromatography with absorbance at 480 nm; settings: absorbance at 480 nm at the position of the FTL peak
T2 construct: made in house; host or cells: Escherichia coli BL21 (DE3), plasmid pET20-FTL
T2 sequence (P02792 whole entry): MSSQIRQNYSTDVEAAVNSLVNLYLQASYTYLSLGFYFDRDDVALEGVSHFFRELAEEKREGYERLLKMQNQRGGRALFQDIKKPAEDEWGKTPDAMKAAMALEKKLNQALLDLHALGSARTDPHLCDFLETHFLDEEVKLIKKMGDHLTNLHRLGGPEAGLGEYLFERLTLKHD
Description: 0.5 mL of a 50 mM glycine hydrochloride buffer (pH 2.3) that contains FTL (chemical formula weight 480,466) at a final concentration of 5 mg/mL and the peptide at a final concentration of 0.5 mM, was left to stand at room temperature for 15 minutes. Next, 50 μL of a 1 M Tris hydrochloride buffer (pH 9.0) was added for neutralization, and the resulting solution was left to stand at room temperature for 3 hours. After the standing, the resulting solution was centrifuged (at 15,000 rpm for one minute). Then, the supernatant was collected and diluted with a 10 mM Tris hydrochloride buffer (pH 8) up to 3 mL in volume. The resulting solution was injected into the HiPrep 26/60 Sephacryl S-300 HR column (GE Healthcare Inc.) equilibrated with D-PBS (-) (Fujifilm Wako Pure Chemical Corporation) to separate and purify 24-mer FTL by size at a flow rate of 1.3 mL/minute. The purified ferritin was analyzed using a HIPrep 16/60 Sephacryl S-300 HR column (GE Healthcare Inc.) equilibrated with PBS at a flow rate of 0.5 mL/minute.

With “5(6)-FAM-RFARKGALRQKNVHEVKN (SEQ ID NO: 9) ({5(6)‑FAM}-RFARKGALRQKNVHEVKN) [PKC-F, fluorescent dye fluorescein (FAM)-modified peptide, linear]” the encapsulation (ferritin (FTH) [1]) was “A (“A” represents peptides with three times of confirmation of encapsulation.)”, the “incorporation into cells, fluorescence at the interior of cells” value (SKBR-3 cell) was “not confirmed” and the “molecules of peptide encapsulated in one molecule of ferritin on average” value (ferritin (FTH) [2]; FTH, from molar ratio) was 8.5 molecules. The “encapsulation of peptide in FTH” value (ferritin (FTH) [2]; absorbance at 480 nm at elution position of 24-mer FTH, LC-MS) was “encapsulated by the ferritin encapsulation operation without being decomposed” and the “encapsulation of peptide in FTL” value (ferritin (FTL)) was “encapsulated in FTL”.
